Measurements as given in the supplement of paper PMC10724198.
± gives the standard deviation of the averaged measurements.

What was measured:
[1] = system: Saccharomyces cerevisiae; experiment: protein stability index of tFT-peptide fusion (C-terminal peptide) (PSI (0-1 scale)); higher = more stable (slower turnover)
Method: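 MPS profiling in S. cerevisiae of the tFT-X12 degron library: putative degron peptides plus stable controls, 12 aa, fused to the C-terminus of a sfGFP-mCherry timer. Cells are FACS-sorted into 8 mCherry/sfGFP bins and deep-sequenced. PSI runs from 0 (unstable) to 1 (stable). Backgrounds are wild type, das1Δ and doa10Δ at 30 °C, and wild type, das1Δ, cdc34-1 and cdc53-1 at 37 °C; 2-3 technical replicates each.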

[2] = system: Saccharomyces cerevisiae; experiment: as above; conditions: genetic background: wild type; temperature: 30 C
[3] = genetic background: cdc34-1, temperature: 37 C
[4] = genetic background: cdc53-1, temperature: 37 C
[5] = genetic background: das1 deletion, temperature: 30 C
[6] = genetic background: das1 deletion, temperature: 37 C
[7] = genetic background: doa10 deletion, temperature: 30 C
[8] = genetic background: wild type, temperature: 30 C
[9] = genetic background: wild type, temperature: 37 C
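Note: PSI is a weighted mean of sequencing reads over stability bins, variants kept only with over 10 reads, mCherry proximal and sfGFP distal, peptide attached via GGGS linker.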

Sequence | protein stability index [1, 3] | protein stability index [1, 4] | protein stability index [1, 5] | protein stability index [1, 6] | protein stability index [1, 7] | protein stability index [1, 8] | protein stability index [1, 9] | protein stability index [2]
IGYLGSELRFVS | 0.688 ± 0.094 | 0.741 ± 0.011 | 0.626 ± 0.0078 | 0.762 ± 0.018 | 0.384 ± 0.017 | 0.434 ± 0.04 | 0.69 ± 0.012 | 0.514 ± 0.037
AMFQLRLLVGSV | 0.489 ± 0.036 | 0.508 ± 0.018 | 0.386 ± 0.037 | 0.5436 ± 0.0049 | 0.36 ± 0.016 | 0.391 ± 0.0056 | 0.5001 ± 0.0027 | 0.499 ± 0.033
LGGVGTLVHCFV | 0.615 ± 0.026 | 0.635 ± 0.016 | 0.36 ± 0.022 | 0.607 ± 0.0081 | 0.351 ± 0.013 | 0.375 ± 0.014 | 0.597 ± 0.02 | 0.452 ± 0.053
RRRRGGQSPALR | 0.651 ± 0.049 | 0.674 ± 0.0087 | 0.71 ± 0.032 | 0.6928 ± 0.0059 | 0.735 ± 0.022 | 0.717 ± 0.03 | 0.6636 ± 0.0065 | 0.711 ± 0.015
DLAWAIGRLTKG | 0.72 ± 0.02 | 0.769 ± 0.033 | 0.654 ± 0.029 | 0.761 ± 0.016 | 0.653 ± 0.011 | 0.652 ± 0.0094 | 0.743 ± 0.013 | 0.568 ± 0.2
PFFFSFILVLFW | 0.172 ± 0.0087 | 0.172 ± 0.036 | 0.219 ± 0.0092 | 0.286 ± 0.034 | 0.2355 ± 0.0021 | 0.186 ± 0.035 | 0.244 ± 0.02 | 0.264 ± 0.028
VWPLAFFLRFFI | 0.547 ± 0.063 | 0.6021 ± 0.0019 | 0.529 ± 0.017 | 0.682 ± 0.017 | 0.247 ± 0.015 | 0.233 ± 0.013 | 0.3623 ± 0.0036 | 0.288 ± 0.014
PVWLFLVRAIKG | 0.431 ± 0.048 | 0.455 ± 0.024 | 0.321 ± 0.028 | 0.5125 ± 0.002 | 0.262 ± 0.0072 | 0.33 ± 0.029 | 0.512 ± 0.056 | 0.431 ± 0.0097
LCWLVHFFLWVS | 0.35 ± 0.081 | 0.431 ± 0.0079 | 0.312 ± 0.024 | 0.442 ± 0.023 | 0.253 ± 0.013 | 0.238 ± 0.017 | 0.393 ± 0.0092 | 0.288 ± 0.018
TSFCIFFVRFVI | 0.374 ± 0.059 | 0.478 ± 0.021 | 0.365 ± 0.022 | 0.50904 ± 0.00041 | 0.277 ± 0.021 | 0.289 ± 0.041 | 0.469 ± 0.015 | 0.322 ± 0.025
VGCMVVIWVLWG | 0.153 ± 0.0096 | 0.225 ± 0.025 | 0.19 ± 0.034 | 0.313 ± 0.013 | 0.145 ± 0.001 | 0.18 ± 0.026 | 0.278 ± 0.025 | 0.325 ± 0.043
SCLFMLFPLVSV | 0.475 ± 0.0048 | 0.505 ± 0.015 | 0.421 ± 0.031 | 0.529 ± 0.01 | 0.412 ± 0.0097 | 0.409 ± 0.033 | 0.5013 ± 0.0033 | 0.432 ± 0.0046
CCFVGLRYVLWV | 0.431 ± 0.022 | 0.5 ± 0.018 | 0.345 ± 0.029 | 0.531 ± 0.0061 | 0.278 ± 0.012 | 0.288 ± 0.0082 | 0.462 ± 0.015 | 0.365 ± 0.009
GINYSNKKILVN | 0.574 ± 0.016 | 0.6729 ± 0.0015 | 0.493 ± 0.027 | 0.691 ± 0.026 | 0.278 ± 0.022 | 0.273 ± 0.033 | 0.57 ± 0.0072 | 0.444 ± 0.059
AVLAALVSTLAG | 0.548 ± 0.019 | 0.565 ± 0.0091 | 0.383 ± 0.024 | 0.5888 ± 0.0053 | 0.349 ± 0.013 | 0.406 ± 0.028 | 0.553 ± 0.026 | 0.4785 ± 0.00075
IKKKKRKKIKAN | 0.634 ± 0.048 | 0.728 ± 0.019 | 0.65 ± 0.024 | 0.751 ± 0.015 | 0.199 ± 0.013 | 0.211 ± 0.017 | 0.291 ± 0.021 | 0.244 ± 0.043
GLPRASPLPIPV | 0.553 ± 0.032 | 0.591 ± 0.006 | 0.447 ± 0.021 | 0.6021 ± 0.0017 | 0.425 ± 0.01 | 0.443 ± 0.016 | 0.57 ± 0.0065 | 0.517 ± 0.048
GSRVICMVVATM | 0.546 ± 0.044 | 0.611 ± 0.016 | 0.463 ± 0.041 | 0.6078 ± 0.0058 | 0.419 ± 0.035 | 0.436 ± 0.02 | 0.582 ± 0.0029 | 0.488 ± 0.022
RMLSLFFPLRTL | 0.651 ± 0.068 | 0.69994 ± 0.00052 | 0.624 ± 0.02 | 0.724 ± 0.024 | 0.196 ± 0.011 | 0.243 ± 0.048 | 0.4527 ± 0.0036 | 0.395 ± 0.035
GCILSLCYAVST | 0.555 ± 0.051 | 0.569 ± 0.024 | 0.332 ± 0.026 | 0.534 ± 0.014 | 0.296 ± 0.0074 | 0.318 ± 0.018 | 0.523 ± 0.013 | 0.389 ± 0.016

Sequence | protein stability index [1, 3] | protein stability index [1, 4] | protein stability index [1, 5] | protein stability index [1, 6] | protein stability index [1, 7] | protein stability index [1, 8] | protein stability index [1, 9] | protein stability index [2]
GIFVRIVCIDVA | 0.125 ± 0.0095 | 0.183 ± 0.0066 | 0.178 ± 0.032 | 0.302 ± 0.007 | 0.143 ± 0.0085 | 0.165 ± 0.021 | 0.2851 ± 0.0006 | 0.2651 ± 0.0024
LFLPFLPTLALL | 0.795 ± 0.029 | 0.823 ± 0.013 | 0.686 ± 0.032 | 0.7901 ± 0.0056 | 0.598 ± 0.021 | 0.623 ± 0.022 | 0.7359 ± 0.0023 | 0.231 ± 0.012
WLSWATRRIVLG | 0.552 ± 0.037 | 0.611 ± 0.019 | 0.57 ± 0.02 | 0.605 ± 0.018 | 0.384 ± 0.008 | 0.401 ± 0.013 | 0.527 ± 0.012 | 0.47 ± 0.031
LSVVVLVLCVLL | 0.285 ± 0.028 | 0.403 ± 0.02 | 0.279 ± 0.04 | 0.42 ± 0.027 | 0.268 ± 0.023 | 0.283 ± 0.023 | 0.428 ± 0.082 | 0.353 ± 0.033
SVSRIFRTFSCY | 0.627 ± 0.023 | 0.759 ± 0.054 | 0.668 ± 0.013 | 0.681 ± 0.047 | 0.216 ± 0.035 | 0.224 ± 0.0094 | 0.396 ± 0.041 | 0.321 ± 0.07
RQINEKKKLYMI | 0.513 ± 0.029 | 0.673 ± 0.14 | 0.639 ± 0.024 | 0.727 ± 0.041 | 0.1 ± 0.013 | 0.102 ± 0.028 | 0.182 ± 0.029 | 0.215 ± 0.033
ILFRRRLCCFLK | 0.349 ± 0.03 | 0.434 ± 0.0052 | 0.443 ± 0.019 | 0.536 ± 0.012 | 0.506 ± 0.021 | 0.396 ± 0.018 | 0.484 ± 0.021 | 0.4735 ± 0.0015
FLTLQSPIQYIV | 0.584 ± 0.032 | 0.732 ± 0.013 | 0.646 ± 0.053 | 0.7289 ± 0.0016 | 0.105 ± 0.0049 | 0.117 ± 0.017 | 0.124 ± 0.0086 | 0.171 ± 0.015
RLPFPVVLFLLF | 0.392 ± 0.033 | 0.465 ± 0.028 | 0.387 ± 0.041 | 0.515 ± 0.026 | 0.3 ± 0.008 | 0.28 ± 0.024 | 0.404 ± 0.011 | 0.352 ± 0.013
FKVTWGLFYGSV | 0.551 ± 0.098 | 0.653 ± 0.048 | 0.505 ± 0.034 | 0.581 ± 0.013 | 0.535 ± 0.059 | 0.548 ± 0.026 | 0.595 ± 0.011 | 0.44 ± 0.061
ILLHSFFSFYLL | 0.484 ± 0.0054 | 0.503 ± 0.0068 | 0.508 ± 0.027 | 0.5933 ± 0.0054 | 0.289 ± 0.009 | 0.269 ± 0.023 | 0.419 ± 0.006 | 0.30744 ± 1.3e-05
GFESTCSLLCVF | 0.33 ± 0.026 | 0.348 ± 0.015 | 0.314 ± 0.036 | 0.433 ± 0.001 | 0.264 ± 0.021 | 0.306 ± 0.026 | 0.407 ± 0.013 | 0.43 ± 0.029
YNRKQEAAQKAN | 0.671 ± 0.02 | 0.735 ± 0.029 | 0.617 ± 0.0072 | 0.71085 ± 0.00017 | 0.363 ± 0.025 | 0.396 ± 0.018 | 0.606 ± 0.011 | 0.486 ± 0.14
YVASSWRHCFII | 0.5016 ± 0.0016 | 0.657 ± 0.039 | 0.658 ± 0.022 | 0.724 ± 0.039 | 0.145 ± 0.012 | 0.152 ± 0.014 | 0.269 ± 0.023 | 0.221 ± 0.039
KHKIIGKYQRQI | 0.704 ± 0.13 | 0.751 ± 0.02 | 0.629 ± 0.033 | 0.7236 ± 0.0012 | 0.319 ± 0.017 | 0.338 ± 0.017 | 0.576 ± 0.015 | 0.46 ± 0.021
ASSSPAPYAPYT | 0.7006 ± 0.0052 | 0.7559 ± 0.0043 | 0.647 ± 0.031 | 0.76 ± 0.029 | 0.634 ± 0.03 | 0.642 ± 0.025 | 0.744 ± 0.017 | 0.635 ± 0.23
FFVFLVLFCLWV | 0.278 ± 0.027 | 0.259 ± 0.065 | 0.302 ± 0.035 | 0.397 ± 0.008 | 0.321 ± 0.022 | 0.261 ± 0.031 | 0.356 ± 0.0055 | 0.391 ± 0.076
VYFPRLLVRVSW | 0.4489 ± 0.0015 | 0.472 ± 0.017 | 0.392 ± 0.029 | 0.508 ± 0.0082 | 0.436 ± 0.0082 | 0.377 ± 0.043 | 0.4787 ± 0.00097 | 0.407 ± 0.095
QKGLFYCVILYC | 0.169 ± 0.019 | 0.253 ± 0.034 | 0.214 ± 0.027 | 0.3829 ± 0.0019 | 0.148 ± 0.017 | 0.156 ± 0.032 | 0.272 ± 0.0046 | 0.316 ± 0.017
